B1: Protein CBFA2T1 (Homo sapiens), Q06455-4 (parent)
chain: MPDSPVDVKTQSRLTPPTMPPPPTTQGAPRTSSFTPTTLTNGTSHSPTALNGAPSPPNGFSNGPSSSSSSSLANQQLPPACGARQLSKLKRFLTTLQQFGNDISPEIGERVRTLVLGLVNSTLTIEEFHSKLQEATNFPLRPFVIPFLKANLPLLQRELLHCARLAKQNPAQYLAQHEQLLLDASTTSPVDSSELLLDVNENGKRRTPDRTKENGFDREPLHSEHPSKRPCTISPGQRYSPNNGLSYQPNGLPHPTPPPPQHYRLDDMAIAHHYRDSYRHPSHRDLRDRNRPMGLHGTRQEEMIDHRLTDREWAEEWKHLDHLLNCIMDMVEKTRRSLTVLRRCQEADREELNYWIRRYSDAEDLKKGGGSSSSHSRQQSPVNPDPVALDAHREFLHRPASGYVPEEIWKKAEEAVNEVKRQAMTELQKAVSEAERKAHDMITTERAKMERTVAEAKRQAAEDALAVINQQEDSSESCWNCGRKASETCSGCNTARYCGSFCQHKDWEKHHHICGQTLQAQQQGDTPAVSSSVTPNSGAGSPMDTPPAATPRSTTPGTPSTIETTPR

Variants of: B1
Conditions: with TCF12, Q99081-3
TCF12, Q99081-3, sequence (Q99081 other isoform, or with tags, fused parts or gaps): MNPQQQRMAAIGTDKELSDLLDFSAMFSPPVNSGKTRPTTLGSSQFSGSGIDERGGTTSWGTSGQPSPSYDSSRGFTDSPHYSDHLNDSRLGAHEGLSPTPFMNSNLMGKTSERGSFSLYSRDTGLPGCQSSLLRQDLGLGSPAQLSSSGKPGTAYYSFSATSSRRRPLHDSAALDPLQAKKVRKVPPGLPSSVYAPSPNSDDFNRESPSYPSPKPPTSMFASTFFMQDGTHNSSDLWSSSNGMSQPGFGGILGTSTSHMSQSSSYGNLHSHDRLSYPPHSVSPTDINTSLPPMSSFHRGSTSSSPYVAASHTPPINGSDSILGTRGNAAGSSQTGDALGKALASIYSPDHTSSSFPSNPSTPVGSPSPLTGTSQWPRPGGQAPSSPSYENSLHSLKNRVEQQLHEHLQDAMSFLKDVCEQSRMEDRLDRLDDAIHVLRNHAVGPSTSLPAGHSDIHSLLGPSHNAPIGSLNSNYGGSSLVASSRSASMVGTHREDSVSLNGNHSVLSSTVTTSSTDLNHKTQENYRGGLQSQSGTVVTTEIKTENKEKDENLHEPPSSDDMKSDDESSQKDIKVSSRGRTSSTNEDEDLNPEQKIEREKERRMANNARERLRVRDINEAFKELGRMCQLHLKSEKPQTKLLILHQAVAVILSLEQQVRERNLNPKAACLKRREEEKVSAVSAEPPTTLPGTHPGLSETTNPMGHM

| effect of a mutation on the interaction | Variant |
| --- | --- |
| decreasing interaction strength | MPDSPVDVKTQSRLTPPTMPPPPTTQGAPRTSSFTPTTLTNGTSHSPTALNGAPSPPNGFSNGPSSSSSSSLANQQLPPACGARQLSKLKRFLTTAQQFGNDISPEIGERVRTLVLGLVNSTLTIEEFHSKLQEATNFPLRPFVIPFLKANLPLLQRELLHCARLAKQNPAQYLAQHEQLLLDASTTSPVDSSELLLDVNENGKRRTPDRTKENGFDREPLHSEHPSKRPCTISPGQRYSPNNGLSYQPNGLPHPTPPPPQHYRLDDMAIAHHYRDSYRHPSHRDLRDRNRPMGLHGTRQEEMIDHRLTDREWAEEWKHLDHLLNCIMDMVEKTRRSLTVLRRCQEADREELNYWIRRYSDAEDLKKGGGSSSSHSRQQSPVNPDPVALDAHREFLHRPASGYVPEEIWKKAEEAVNEVKRQAMTELQKAVSEAERKAHDMITTERAKMERTVAEAKRQAAEDALAVINQQEDSSESCWNCGRKASETCSGCNTARYCGSFCQHKDWEKHHHICGQTLQAQQQGDTPAVSSSVTPNSGAGSPMDTPPAATPRSTTPGTPSTIETTPR [L96A] |
| disrupting interaction strength | MPDSPVDVKTQSRLTPPTMPPPPTTQGAPRTSSFTPTTLTNGTSHSPTALNGAPSPPNGFSNGPSSSSSSSLANQQLPPACGARQLSKLKRALTTLQQFGNDISPEIGERVRTLVLGLVNSTLTIEEFHSKLQEATNFPLRPFVIPALKANLPLLQRELLHCARLAKQNPAQYLAQHEQLLLDASTTSPVDSSELLLDVNENGKRRTPDRTKENGFDREPLHSEHPSKRPCTISPGQRYSPNNGLSYQPNGLPHPTPPPPQHYRLDDMAIAHHYRDSYRHPSHRDLRDRNRPMGLHGTRQEEMIDHRLTDREWAEEWKHLDHLLNCIMDMVEKTRRSLTVLRRCQEADREELNYWIRRYSDAEDLKKGGGSSSSHSRQQSPVNPDPVALDAHREFLHRPASGYVPEEIWKKAEEAVNEVKRQAMTELQKAVSEAERKAHDMITTERAKMERTVAEAKRQAAEDALAVINQQEDSSESCWNCGRKASETCSGCNTARYCGSFCQHKDWEKHHHICGQTLQAQQQGDTPAVSSSVTPNSGAGSPMDTPPAATPRSTTPGTPSTIETTPR [F92A;F147A] |
| disrupting interaction strength | MPDSPVDVKTQSRLTPPTMPPPPTTQGAPRTSSFTPTTLTNGTSHSPTALNGAPSPPNGFSNGPSSSSSSSLANQQLPPACGARQLSKLKDFLTTLQQFGNDISPEIGERVRTLVLGLVNSTLTIEEFHSKLQEATNFPLRPFVIPFLKANLPLLQRELLHCARLAKQNPAQYLAQHEQLLLDASTTSPVDSSELLLDVNENGKRRTPDRTKENGFDREPLHSEHPSKRPCTISPGQRYSPNNGLSYQPNGLPHPTPPPPQHYRLDDMAIAHHYRDSYRHPSHRDLRDRNRPMGLHGTRQEEMIDHRLTDREWAEEWKHLDHLLNCIMDMVEKTRRSLTVLRRCQEADREELNYWIRRYSDAEDLKKGGGSSSSHSRQQSPVNPDPVALDAHREFLHRPASGYVPEEIWKKAEEAVNEVKRQAMTELQKAVSEAERKAHDMITTERAKMERTVAEAKRQAAEDALAVINQQEDSSESCWNCGRKASETCSGCNTARYCGSFCQHKDWEKHHHICGQTLQAQQQGDTPAVSSSVTPNSGAGSPMDTPPAATPRSTTPGTPSTIETTPR [R91D] |
| disrupting interaction strength | MPDSPVDVKTQSRLTPPTMPPPPTTQGAPRTSSFTPTTLTNGTSHSPTALNGAPSPPNGFSNGPSSSSSSSLANQQLPPACGARQLSDLKRFLTTLQQFGNDISPEIGERVRTLVLGLVNSTLTIEEFHSKLQEATNFPLRPFVIPFLKANLPLLQRELLHCARLAKQNPAQYLAQHEQLLLDASTTSPVDSSELLLDVNENGKRRTPDRTKENGFDREPLHSEHPSKRPCTISPGQRYSPNNGLSYQPNGLPHPTPPPPQHYRLDDMAIAHHYRDSYRHPSHRDLRDRNRPMGLHGTRQEEMIDHRLTDREWAEEWKHLDHLLNCIMDMVEKTRRSLTVLRRCQEADREELNYWIRRYSDAEDLKKGGGSSSSHSRQQSPVNPDPVALDAHREFLHRPASGYVPEEIWKKAEEAVNEVKRQAMTELQKAVSEAERKAHDMITTERAKMERTVAEAKRQAAEDALAVINQQEDSSESCWNCGRKASETCSGCNTARYCGSFCQHKDWEKHHHICGQTLQAQQQGDTPAVSSSVTPNSGAGSPMDTPPAATPRSTTPGTPSTIETTPR [K88D] |
| disrupting interaction strength | MPDSPVDVKTQSRLTPPTMPPPPTTQGAPRTSSFTPTTLTNGTSHSPTALNGAPSPPNGFSNGPSSSSSSSLANQQLPPACGARQLSALKRFLTTLQQFGNDISPEIGERVRTLVLGLVNSTLTIEEFHSKLQEATNFPLRPFVIPFLKANLPLLQRELLHCARLAKQNPAQYLAQHEQLLLDASTTSPVDSSELLLDVNENGKRRTPDRTKENGFDREPLHSEHPSKRPCTISPGQRYSPNNGLSYQPNGLPHPTPPPPQHYRLDDMAIAHHYRDSYRHPSHRDLRDRNRPMGLHGTRQEEMIDHRLTDREWAEEWKHLDHLLNCIMDMVEKTRRSLTVLRRCQEADREELNYWIRRYSDAEDLKKGGGSSSSHSRQQSPVNPDPVALDAHREFLHRPASGYVPEEIWKKAEEAVNEVKRQAMTELQKAVSEAERKAHDMITTERAKMERTVAEAKRQAAEDALAVINQQEDSSESCWNCGRKASETCSGCNTARYCGSFCQHKDWEKHHHICGQTLQAQQQGDTPAVSSSVTPNSGAGSPMDTPPAATPRSTTPGTPSTIETTPR [K88A] |
| disrupting interaction strength | MPDSPVDVKTQSRLTPPTMPPPPTTQGAPRTSSFTPTTLTNGTSHSPTALNGAPSPPNGFSNGPSSSSSSSLANQQLPPACGARQLSKLKRALTTLQQFGNDISPEIGERVRTLVLGLVNSTLTIEEFHSKLQEATNFPLRPFVIPFLKANLPLLQRELLHCARLAKQNPAQYLAQHEQLLLDASTTSPVDSSELLLDVNENGKRRTPDRTKENGFDREPLHSEHPSKRPCTISPGQRYSPNNGLSYQPNGLPHPTPPPPQHYRLDDMAIAHHYRDSYRHPSHRDLRDRNRPMGLHGTRQEEMIDHRLTDREWAEEWKHLDHLLNCIMDMVEKTRRSLTVLRRCQEADREELNYWIRRYSDAEDLKKGGGSSSSHSRQQSPVNPDPVALDAHREFLHRPASGYVPEEIWKKAEEAVNEVKRQAMTELQKAVSEAERKAHDMITTERAKMERTVAEAKRQAAEDALAVINQQEDSSESCWNCGRKASETCSGCNTARYCGSFCQHKDWEKHHHICGQTLQAQQQGDTPAVSSSVTPNSGAGSPMDTPPAATPRSTTPGTPSTIETTPR [F92A] |
| disrupting interaction strength | MPDSPVDVKTQSRLTPPTMPPPPTTQGAPRTSSFTPTTLTNGTSHSPTALNGAPSPPNGFSNGPSSSSSSSLANQQLPPACGARQLSKLKRFLTTLQQFGNDISPEIGERVRTLVLGLVNSTLTIEEFHSKLQEATNFPLAPFVIPFLKANLPLLQRELLHCARLAKQNPAQYLAQHEQLLLDASTTSPVDSSELLLDVNENGKRRTPDRTKENGFDREPLHSEHPSKRPCTISPGQRYSPNNGLSYQPNGLPHPTPPPPQHYRLDDMAIAHHYRDSYRHPSHRDLRDRNRPMGLHGTRQEEMIDHRLTDREWAEEWKHLDHLLNCIMDMVEKTRRSLTVLRRCQEADREELNYWIRRYSDAEDLKKGGGSSSSHSRQQSPVNPDPVALDAHREFLHRPASGYVPEEIWKKAEEAVNEVKRQAMTELQKAVSEAERKAHDMITTERAKMERTVAEAKRQAAEDALAVINQQEDSSESCWNCGRKASETCSGCNTARYCGSFCQHKDWEKHHHICGQTLQAQQQGDTPAVSSSVTPNSGAGSPMDTPPAATPRSTTPGTPSTIETTPR [R141A] |
| disrupting interaction strength | MPDSPVDVKTQSRLTPPTMPPPPTTQGAPRTSSFTPTTLTNGTSHSPTALNGAPSPPNGFSNGPSSSSSSSLANQQLPPACGARQLSKLKRFLTTLQQFGNDISPEIGERVRTLVLGLVNSTLTIEEFHSKLQEATNFPLDPFVIPFLKANLPLLQRELLHCARLAKQNPAQYLAQHEQLLLDASTTSPVDSSELLLDVNENGKRRTPDRTKENGFDREPLHSEHPSKRPCTISPGQRYSPNNGLSYQPNGLPHPTPPPPQHYRLDDMAIAHHYRDSYRHPSHRDLRDRNRPMGLHGTRQEEMIDHRLTDREWAEEWKHLDHLLNCIMDMVEKTRRSLTVLRRCQEADREELNYWIRRYSDAEDLKKGGGSSSSHSRQQSPVNPDPVALDAHREFLHRPASGYVPEEIWKKAEEAVNEVKRQAMTELQKAVSEAERKAHDMITTERAKMERTVAEAKRQAAEDALAVINQQEDSSESCWNCGRKASETCSGCNTARYCGSFCQHKDWEKHHHICGQTLQAQQQGDTPAVSSSVTPNSGAGSPMDTPPAATPRSTTPGTPSTIETTPR [R141D] |
| disrupting interaction strength | MPDSPVDVKTQSRLTPPTMPPPPTTQGAPRTSSFTPTTLTNGTSHSPTALNGAPSPPNGFSNGPSSSSSSSLANQQLPPACGARQLSKAKRFLTTLQQFGNDISPEIGERVRTLVLGLVNSTLTIEEFHSKLQEATNFPLDPFVIPFLKANLPLLQRELLHCARLAKQNPAQYLAQHEQLLLDASTTSPVDSSELLLDVNENGKRRTPDRTKENGFDREPLHSEHPSKRPCTISPGQRYSPNNGLSYQPNGLPHPTPPPPQHYRLDDMAIAHHYRDSYRHPSHRDLRDRNRPMGLHGTRQEEMIDHRLTDREWAEEWKHLDHLLNCIMDMVEKTRRSLTVLRRCQEADREELNYWIRRYSDAEDLKKGGGSSSSHSRQQSPVNPDPVALDAHREFLHRPASGYVPEEIWKKAEEAVNEVKRQAMTELQKAVSEAERKAHDMITTERAKMERTVAEAKRQAAEDALAVINQQEDSSESCWNCGRKASETCSGCNTARYCGSFCQHKDWEKHHHICGQTLQAQQQGDTPAVSSSVTPNSGAGSPMDTPPAATPRSTTPGTPSTIETTPR [L89A;R141D] |
| decreasing interaction strength | MPDSPVDVKTQSRLTPPTMPPPPTTQGAPRTSSFTPTTLTNGTSHSPTALNGAPSPPNGFSNGPSSSSSSSLANQQLPPACGARQLSKAKRFLTTLQQFGNDISPEIGERVRTLVLGLVNSTLTIEEFHSKLQEATNFPLRPFVIPFLKANLPLLQRELLHCARLAKQNPAQYLAQHEQLLLDASTTSPVDSSELLLDVNENGKRRTPDRTKENGFDREPLHSEHPSKRPCTISPGQRYSPNNGLSYQPNGLPHPTPPPPQHYRLDDMAIAHHYRDSYRHPSHRDLRDRNRPMGLHGTRQEEMIDHRLTDREWAEEWKHLDHLLNCIMDMVEKTRRSLTVLRRCQEADREELNYWIRRYSDAEDLKKGGGSSSSHSRQQSPVNPDPVALDAHREFLHRPASGYVPEEIWKKAEEAVNEVKRQAMTELQKAVSEAERKAHDMITTERAKMERTVAEAKRQAAEDALAVINQQEDSSESCWNCGRKASETCSGCNTARYCGSFCQHKDWEKHHHICGQTLQAQQQGDTPAVSSSVTPNSGAGSPMDTPPAATPRSTTPGTPSTIETTPR [L89A] |
| disrupting interaction strength | MPDSPVDVKTQSRLTPPTMPPPPTTQGAPRTSSFTPTTLTNGTSHSPTALNGAPSPPNGFSNGPSSSSSSSLANQQLPPACGARQLSKLKRFLTTLQQFGNDISPEIGERVRTLVLGLVNSTLTIEEFHSKLQEATNFPLRPFVIPALKANLPLLQRELLHCARLAKQNPAQYLAQHEQLLLDASTTSPVDSSELLLDVNENGKRRTPDRTKENGFDREPLHSEHPSKRPCTISPGQRYSPNNGLSYQPNGLPHPTPPPPQHYRLDDMAIAHHYRDSYRHPSHRDLRDRNRPMGLHGTRQEEMIDHRLTDREWAEEWKHLDHLLNCIMDMVEKTRRSLTVLRRCQEADREELNYWIRRYSDAEDLKKGGGSSSSHSRQQSPVNPDPVALDAHREFLHRPASGYVPEEIWKKAEEAVNEVKRQAMTELQKAVSEAERKAHDMITTERAKMERTVAEAKRQAAEDALAVINQQEDSSESCWNCGRKASETCSGCNTARYCGSFCQHKDWEKHHHICGQTLQAQQQGDTPAVSSSVTPNSGAGSPMDTPPAATPRSTTPGTPSTIETTPR [F147A] |

Source: IntAct's records for PubMed 16803958
